Common to all, as to assay: EMSA
Data set [1] has as its target NEIL1 DA S207A;S306A (human) (UniProt Q96FI4). Particulars: tetrahydrofuran (abasic site analog) at position 14 of strand 1 (N), opposite C; EMSA: 10 pM 32P-DNA, 0-600 nM enzyme, 10% native PAGE, 2 h at 10 mA; binding buffer, salt, pH and temperature not stated; one-site specific binding fit (Prism …).
The target in data set [2] is NEIL1 DE S207E;S306E (human) (UniProt Q96FI4). Particulars: tetrahydrofuran (abasic site analog) at position 14 of strand 1 (N), opposite C; EMSA: 10 pM 32P-DNA, 0-600 nM enzyme, 10% native PAGE, 2 h at 10 mA; binding buffer, salt, pH and temperature not stated; one-site specific binding fit (Prism …).
Data set [3] deals with NEIL1 S207A S207A (human) (UniProt Q96FI4). The following applies: multiple complexes (C1+C2+C3) quantified; tetrahydrofuran (abasic site analog) at position 14 of strand 1 (N), opposite C; EMSA: 10 pM 32P-DNA, 0-600 nM enzyme, 10% native PAGE, 2 h at 10 mA; binding buffer, salt, pH and temperature not stated; one-site specific binding fit (Prism …).
The target of data set [4] is NEIL1 S207E S207E (human) (UniProt Q96FI4). Particulars: tetrahydrofuran (abasic site analog) at position 14 of strand 1 (N), opposite C; EMSA: 10 pM 32P-DNA, 0-600 nM enzyme, 10% native PAGE, 2 h at 10 mA; binding buffer, salt, pH and temperature not stated; one-site specific binding fit (Prism …).
The target in data set [5] is NEIL1 S306A S306A (human) (UniProt Q96FI4). Particulars: upper bands may lower Kd; tetrahydrofuran (abasic site analog) at position 14 of strand 1 (N), opposite C; EMSA: 10 pM 32P-DNA, 0-600 nM enzyme, 10% native PAGE, 2 h at 10 mA; binding buffer, salt, pH and temperature not stated; one-site specific binding fit (Prism …).
In data set [6] the target is NEIL1 S306E S306E (human) (UniProt Q96FI4). Particulars: tetrahydrofuran (abasic site analog) at position 14 of strand 1 (N), opposite C; EMSA: 10 pM 32P-DNA, 0-600 nM enzyme, 10% native PAGE, 2 h at 10 mA; binding buffer, salt, pH and temperature not stated; one-site specific binding fit (Prism …).
Another data set has as its target NEIL1 S61A S61A (human) (UniProt Q96FI4). Particulars: tetrahydrofuran (abasic site analog) at position 14 of strand 1 (N), opposite C; EMSA: 10 pM 32P-DNA, 0-600 nM enzyme, 10% native PAGE, 2 h at 10 mA; binding buffer, salt, pH and temperature not stated; one-site specific binding fit (Prism …).
In a further data set the target is NEIL1 S61E S61E (human) (UniProt Q96FI4). Particulars: tetrahydrofuran (abasic site analog) at position 14 of strand 1 (N), opposite C; EMSA: 10 pM 32P-DNA, 0-600 nM enzyme, 10% native PAGE, 2 h at 10 mA; binding buffer, salt, pH and temperature not stated; one-site specific binding fit (Prism …).
For data set [7], the target named is NEIL1 TA S207A;S306A;S61A (human) (UniProt Q96FI4). Particulars: tetrahydrofuran (abasic site analog) at position 14 of strand 1 (N), opposite C; EMSA: 10 pM 32P-DNA, 0-600 nM enzyme, 10% native PAGE, 2 h at 10 mA; binding buffer, salt, pH and temperature not stated; one-site specific binding fit (Prism …).
Data set [8] addresses NEIL1 TE S207E;S306E;S61E (human) (UniProt Q96FI4). Particulars: upper bands may lower Kd; tetrahydrofuran (abasic site analog) at position 14 of strand 1 (N), opposite C; EMSA: 10 pM 32P-DNA, 0-600 nM enzyme, 10% native PAGE, 2 h at 10 mA; binding buffer, salt, pH and temperature not stated; one-site specific binding fit (Prism …).
The target in another data set is NEIL1 WT (human) (UniProt Q96FI4). Particulars: tetrahydrofuran (abasic site analog) at position 14 of strand 1 (N), opposite C; EMSA: 10 pM 32P-DNA, 0-600 nM enzyme, 10% native PAGE, 2 h at 10 mA; binding buffer, salt, pH and temperature not stated; one-site specific binding fit (Prism …).
Sequence of NEIL1 WT (human) (Q96FI4 whole entry): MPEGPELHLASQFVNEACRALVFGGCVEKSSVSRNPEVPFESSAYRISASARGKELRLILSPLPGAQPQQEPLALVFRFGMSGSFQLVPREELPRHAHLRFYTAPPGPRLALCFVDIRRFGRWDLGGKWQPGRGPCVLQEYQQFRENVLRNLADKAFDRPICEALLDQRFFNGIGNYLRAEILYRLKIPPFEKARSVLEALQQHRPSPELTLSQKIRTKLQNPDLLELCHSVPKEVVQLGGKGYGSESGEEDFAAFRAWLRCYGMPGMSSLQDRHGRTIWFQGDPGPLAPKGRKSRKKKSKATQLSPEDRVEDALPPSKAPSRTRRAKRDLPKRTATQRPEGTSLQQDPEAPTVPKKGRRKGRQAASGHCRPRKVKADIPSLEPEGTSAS

Sequence of NEIL1 S306A S306A (human) (Q96FI4 whole entry S306A): as the sequence (Q96FI4 whole entry) above, with S306A counted along it
Sequence of NEIL1 S61E S61E (human) (Q96FI4 whole entry S61E): as the sequence (Q96FI4 whole entry) above, with S61E counted along it
Sequence of NEIL1 S306E S306E (human) (Q96FI4 whole entry S306E): as the sequence (Q96FI4 whole entry) above, with S306E counted along it
Sequence of NEIL1 S207A S207A (human) (Q96FI4 whole entry S207A): as the sequence (Q96FI4 whole entry) above, with S207A counted along it
Sequence of NEIL1 TA S207A;S306A;S61A (human) (Q96FI4 whole entry S61A/S207A/S306A): as the sequence (Q96FI4 whole entry) above, with S61A, S207A, S306A counted along it
Sequence of NEIL1 S61A S61A (human) (Q96FI4 whole entry S61A): as the sequence (Q96FI4 whole entry) above, with S61A counted along it
Sequence of NEIL1 DE S207E;S306E (human) (Q96FI4 whole entry S207E/S306E): as the sequence (Q96FI4 whole entry) above, with S207E, S306E counted along it
Sequence of NEIL1 TE S207E;S306E;S61E (human) (Q96FI4 whole entry S61E/S207E/S306E): as the sequence (Q96FI4 whole entry) above, with S61E, S207E, S306E counted along it
Sequence of NEIL1 DA S207A;S306A (human) (Q96FI4 whole entry S207A/S306A): as the sequence (Q96FI4 whole entry) above, with S207A, S306A counted along it
Sequence of NEIL1 S207E S207E (human) (Q96FI4 whole entry S207E): as the sequence (Q96FI4 whole entry) above, with S207E counted along it

As for “TGTCAATAGCAAGNGGAGAAGTCAATCGTGAGTCT / AGACTCACGATTGACTTCTCCCCTTGCTATTGACA [35-mer Furan:C duplex]”, the dissociation constant (Kd) turned out to be 0.0108 µM in data set [1]; 0.015 µM in [2]; 0.0032 µM in data set [3]; 0.0045 µM in data set [4]; 0.0023 µM in [5]; 0.0078 µM in [6]. Besides, the equilibrium dissociation constant (Kd) in the data set with NEIL1 S61A S61A (human) amounted to 0.0162 µM; with NEIL1 S61E S61E (human), 0.0196 µM; in data set [7] it was 0.0132 µM; in data set [8] it was 0.0013 µM; with NEIL1 WT (human) it was 0.023 µM.
